Measurements taken from patent US20220185900A1 (Regeneron, published 2022).

B1: H4H8062P (antibody, human IgG4, V domains shown)
VH: EVQLVESGGGLVQPGGSLRLSCSVSGFIFKNYAMRWVRQAPGKGLEWVSGISGSGGITYYADSVRGRVTISRDNSKNTLDLQMTNLRAEDTAVYYCAKAEYSSSGAYFDYWGQGTLVTVSS
VL: DIQMTQSPSSLSASVGDRVTITCRASQSIHNYLNWYLQRPGKAPKLLVYAASSLQSGVPSRFSGRGSGTDFTLTISSLQPEDFATYYCQQSYSAPYSFGQGTKLEIK
notes: human IgG4 Fc (H4H prefix)
B2: H4H8079P (antibody, human IgG4, V domains shown)
VH: EVQLVESGGGLVKPGGSLRLSCAASGFTFSNAWMSWVRQAPGKGLEWVGRIKSKTDGGTSEYAAPVKGRFTISRDDSKNTLFLQMNSLKSEDAAVYYCTTGRSWSDYFDFWGQGTLVTVSS
VL: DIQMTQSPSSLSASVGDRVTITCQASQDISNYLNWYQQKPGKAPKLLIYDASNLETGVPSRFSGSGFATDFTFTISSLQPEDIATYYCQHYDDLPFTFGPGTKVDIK
notes: human IgG4 Fc (H4H prefix)
B3: H4H8076P (antibody, human IgG4, V domains shown)
VH: QVQLQQSGPGLVKPSQTLSLTCAISGDSVSSNSVAWNWIRQSPSRGLEWLGRTYYRSNWYNTYAVSVKSRITIDPDTSKNQFSLQLNSVTPEDTALYYCARGHRYSGSYFDYWGQGTLVTVSS
VL: DIQMTQSPSSLSASVGDRVTITCRASQNINSYFNWYQQKPGKAPKLLIYAASSLQSGVPSRFSGGGSGTDFTLTISSLQPEDFATYYCQQTYTIPWTFGQGTKVEIK
notes: human IgG4 Fc (H4H prefix)
B4: H4H8044P (antibody, human IgG4, V domains shown)
VH: QVQLVESGGGVVQPGRSLRLSCAASGFTFSGSGMHWVRQAPGKGLEWVAVIWEDGSNKYYADSVRGRFTISRDNFKNTLYLQMNSLRAEDTAVYYCARQTMVRGVIRFYYYYYGMDVWGQGTTVTVSS
VL: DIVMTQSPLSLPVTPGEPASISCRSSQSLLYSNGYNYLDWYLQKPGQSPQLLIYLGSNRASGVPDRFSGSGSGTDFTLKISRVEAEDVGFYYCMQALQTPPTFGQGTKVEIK
notes: human IgG4 Fc (H4H prefix)
B5: H4H8071P (antibody, human IgG4, V domains shown)
VH: EVQLVESGGGLVQPGGSLRLSCAASGFTFTTYFMSWVRQAPGKGLEWVSGISGSGTSTFYVDSMKGRFTISRDNSKNTLYLQMNSLRVEDTAVYFCAKENTYGHFDFWGQGTLVTVSS
VL: DIQLTQSPSFLSASVGDRVTITCWASQDISSHLAWYQQKPGKAPKVLIYDASTLQSGVPSRISGSGSGTEFTLTISSLQPEDFAAYYCQQLDGYPYTFGQGTKLEIK
notes: human IgG4 Fc (H4H prefix)

What was measured:
hRET.mmh [1] = molecular target: T1, hRET.mmh (human, UniProt P07949 29-635, biotinylated in the ELISA of Example 4 (biot-hRET.mmh); not in the SPR of Example 3); test: SPR Biacore T200, mAb capture, 25 C
T1 construct: also called biot-hRET.mmh; soluble monomeric human RET
Protocol: (§1) Binding affinities and kinetic constants of human anti-RET antibodies were determined by surface plasmon resonance (Biacore T200) at […] (Tables 2-3). […] Binding equilibrium dissociation constants (KD) and dissociative half-lives (t_{1/2}) were calculated from the kinetic rate constants as: KD [M]=kd/kₐ; and t_{1/2}(min)=(ln2/(60*kd). Calculations were performed using BiacoreT200 evaluation software v1.0.

[2] = molecular target: T2, Macaca fascicularis (mf) RET.mmh (Macaca fascicularis); test: SPR Biacore T200, mAb capture, 25 C
T2 construct: also called monkey RET
T2 chain: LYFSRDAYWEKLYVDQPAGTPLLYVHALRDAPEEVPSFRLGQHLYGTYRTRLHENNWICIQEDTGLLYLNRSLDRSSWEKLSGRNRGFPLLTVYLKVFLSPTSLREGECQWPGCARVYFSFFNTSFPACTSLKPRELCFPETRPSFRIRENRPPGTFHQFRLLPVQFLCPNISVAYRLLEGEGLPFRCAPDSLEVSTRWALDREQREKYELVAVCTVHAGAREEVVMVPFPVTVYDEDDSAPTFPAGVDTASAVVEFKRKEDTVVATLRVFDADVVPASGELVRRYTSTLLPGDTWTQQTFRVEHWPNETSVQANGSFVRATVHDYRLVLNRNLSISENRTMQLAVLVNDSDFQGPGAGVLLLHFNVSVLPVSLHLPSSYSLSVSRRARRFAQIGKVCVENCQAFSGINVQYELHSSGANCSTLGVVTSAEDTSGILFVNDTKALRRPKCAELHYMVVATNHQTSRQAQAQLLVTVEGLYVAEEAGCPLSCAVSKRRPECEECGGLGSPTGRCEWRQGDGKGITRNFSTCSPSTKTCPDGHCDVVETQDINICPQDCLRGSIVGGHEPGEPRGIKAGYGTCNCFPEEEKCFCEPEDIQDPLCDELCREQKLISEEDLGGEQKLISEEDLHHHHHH
Protocol: as §1

hRET.mFc [3] = molecular target: T3, hRET.mFc (human); test: SPR Biacore T200, mAb capture, 25 C
T3 construct: also called dimeric human RET
Protocol: as §1

hRET.mmh [4] = molecular target: T1, hRET.mmh; test: SPR Biacore T200, mAb capture, 37 C
Protocol: as §1

[5] = molecular target: T2, Macaca fascicularis (mf) RET.mmh; test: SPR Biacore T200, mAb capture, 37 C
Protocol: as §1

hRET.mFc [6] = molecular target: T3, hRET.mFc; test: SPR Biacore T200, mAb capture, 37 C
Protocol: as §1

hRET.mmh [7] = molecular target: T1, hRET.mmh; test: competition sandwich ELISA: 1 nM biot-hRET.mmh + antibody, plate-coated GDNF/GFRα1 co-complex
Protocol: The ability of anti-RET antibodies to block the binding of human RET to pre-complexed plate bound GDNF:GFRα1 was assessed using a competition sandwich ELISA.
Antibody-RET mixtures were incubated for 1 hour at RT and then transferred to microtiter plates previously coated with the hGDNF/hGFRα1 co-complex. Binding was allowed to proceed for 1 hr at RT followed by extensive washing. […] Plates were read at 450 nm and data analysis used a sigmoidal dose-response model within Prism™ software.
The absorbance values of the wells containing the highest concentration for each antibody were used to determine the blocking percent at maximum concentration antibody tested.

Binder | Kd (hRET.mmh [1]) [nM] | koff (hRET.mmh [1]) [s⁻¹] | kon (hRET.mmh [1]) [M⁻¹ s⁻¹] | t½ (hRET.mmh [1]) [min] | Kd [2] [nM] | koff [2] [s⁻¹] | kon [2] [M⁻¹ s⁻¹] | t½ [2] [min] | Kd (hRET.mFc [3]) [nM] | koff (hRET.mFc [3]) [s⁻¹] | kon (hRET.mFc [3]) [M⁻¹ s⁻¹] | t½ (hRET.mFc [3]) [min] | Kd (hRET.mmh [4]) [nM] | koff (hRET.mmh [4]) [s⁻¹] | kon (hRET.mmh [4]) [M⁻¹ s⁻¹] | t½ (hRET.mmh [4]) [min] | Kd [5] [nM] | koff [5] [s⁻¹] | kon [5] [M⁻¹ s⁻¹] | t½ [5] [min] | also measured
B1 | 0.733 | 0.00037 | 505000 | 31 | 1.46 | 0.000733 | 501000 | 16 | 0.49 | 0.00022 | 400000 | 53 | 2.65 | 0.00181 | 682000 | 6 | 6.31 | 0.00428 | 678000 | 3 | Kd (hRET.mFc [6]): 2.4 nM; koff (hRET.mFc [6]): 0.00088 s⁻¹; kon (hRET.mFc [6]): 366000 M⁻¹ s⁻¹; t½ (hRET.mFc [6]): 13 min; % Max Blocking (hRET.mmh [7]): 97%; IC50 (hRET.mmh [7]): < 0.25 nM
B2 | 2.68 | 0.000384 | 143000 | 30 | 3.73 | 0.000435 | 117000 | 27 | 0.72 | 0.000151 | 209000 | 77 | 9.1 | 0.00189 | 207000 | 6 | 13.3 | 0.00205 | 154000 | 6 | Kd (hRET.mFc [6]): 2 nM; koff (hRET.mFc [6]): 0.000523 s⁻¹; kon (hRET.mFc [6]): 261000 M⁻¹ s⁻¹; t½ (hRET.mFc [6]): 22 min; % Max Blocking (hRET.mmh [7]): 93%; IC50 (hRET.mmh [7]): < 0.25 nM
B3 | 1.51 | 0.000338 | 224000 | 34 | 1.54 | 0.000327 | 212000 | 35 | 0.686 | 0.000171 | 250000 | 68 | 4.31 | 0.00136 | 315000 | 9 | 4.84 | 0.0014 | 289000 | 8 | Kd (hRET.mFc [6]): 2.15 nM; koff (hRET.mFc [6]): 0.000675 s⁻¹; kon (hRET.mFc [6]): 314000 M⁻¹ s⁻¹; t½ (hRET.mFc [6]): 17 min; % Max Blocking (hRET.mmh [7]): 95%; IC50 (hRET.mmh [7]): < 0.25 nM
B4 | 5.49 | 0.000488 | 88800 | 24 | 14.7 | 0.00135 | 92000 | 9 | 1.97 | 0.000211 | 107000 | 55 | 18.6 | 0.00281 | 151000 | 4 | 48.5 | 0.00521 | 108000 | 2 | Kd (hRET.mFc [6]): 6.21 nM; koff (hRET.mFc [6]): 0.00085 s⁻¹; kon (hRET.mFc [6]): 137000 M⁻¹ s⁻¹; t½ (hRET.mFc [6]): 14 min; % Max Blocking (hRET.mmh [7]): 91%; IC50 (hRET.mmh [7]): 5.2 nM
B5 | 1.41 | 0.000219 | 156000 | 53 | 2.32 | 0.000272 | 117000 | 43 | 0.89 | 0.000179 | 200000 | 65 | 3.79 | 0.000896 | 236000 | 13 | 7.04 | 0.00114 | 161000 | 10 | Kd (hRET.mFc [6]): 1.04 nM; koff (hRET.mFc [6]): 0.000312 s⁻¹; kon (hRET.mFc [6]): 300000 M⁻¹ s⁻¹; t½ (hRET.mFc [6]): 37 min; % Max Blocking (hRET.mmh [7]): 72%; IC50 (hRET.mmh [7]): 0.36 nM
